Source: paper PMC4491694, “New Variants of Tomato Thymidine Kinase 1 Selected for Increased Sensitivity of E. coli KY895 towards Azidothymidine” (Cancers, 2015)
Residue numbers refer to the chain shown, from its start. In names and notes the source's numbering stands.

What was measured:
ToTK1ΔC25 [1] = target: T1, ToTK1ΔC25 (Solanum lycopersicum, UniProt Q71F77); test: nucleoside kinase assay, 3H-labelled nucleoside, Michaelis-Menten fit; format: biochemical; details: labelled compound (3H)
T1 construct: last 25 C-terminal residues of the 234-residue protein deleted (residues 210-234, borders derived); GST fusion from pGEX-2T, thrombin-cleaved, recombinant
T1 sequence (Q71F77 1-209): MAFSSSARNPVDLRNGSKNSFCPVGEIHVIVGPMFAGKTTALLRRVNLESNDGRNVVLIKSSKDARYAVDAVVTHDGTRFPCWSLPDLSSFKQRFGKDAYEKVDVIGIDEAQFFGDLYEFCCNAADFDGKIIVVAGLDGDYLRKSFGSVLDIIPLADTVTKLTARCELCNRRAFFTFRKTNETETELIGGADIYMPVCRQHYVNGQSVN
Description: (§1) nucleoside kinase assay, 3H-labelled nucleoside, Michaelis-Menten fit on ToTK1ΔC25

ToTK1 [2] = target: T2, ToTK1 (Solanum lycopersicum, UniProt Q71F77); test: as above; format: biochemical; details: labelled compound (3H)
T2 construct: full length, 234 residues; GST fusion from pGEX-2T, thrombin-cleaved, recombinant
T2 sequence (Q71F77 1-234): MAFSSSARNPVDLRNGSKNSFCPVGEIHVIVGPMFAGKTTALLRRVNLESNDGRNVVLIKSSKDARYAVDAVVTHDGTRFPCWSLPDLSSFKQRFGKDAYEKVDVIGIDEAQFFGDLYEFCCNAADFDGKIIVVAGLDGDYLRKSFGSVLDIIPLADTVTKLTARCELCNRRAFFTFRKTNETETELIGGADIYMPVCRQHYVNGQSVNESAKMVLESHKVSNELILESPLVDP
Description: (§2) nucleoside kinase assay, 3H-labelled nucleoside, Michaelis-Menten fit on ToTK1

ToTK1 [3] = target: T3, ToTK1 (Solanum lycopersicum, UniProt Q71F77, T78A/N123S); test: as above; format: biochemical; details: labelled compound (3H)
T3 construct: full length, 234 residues; GST fusion from pGEX-2T, thrombin-cleaved, recombinant
T3 sequence (Q71F77 1-234 T78A/N123S): T2 sequence (Q71F77 1-234) with T78A, N123S
Description: as §2

ToTK1 [4] = target: T4, ToTK1 (Solanum lycopersicum, UniProt Q71F77, N123S/T78A); test: nucleoside kinase assay, 3H-labelled nucleoside substrate; Ki equals IC50; format: biochemical; details: read-out: dThd
T4 construct: full length, 234 residues; GST fusion from pGEX-2T, thrombin-cleaved, recombinant
T4 sequence (Q71F77 1-234 T78A/N123S): T2 sequence (Q71F77 1-234) with T78A, N123S
Description: nucleoside kinase assay, 3H-labelled nucleoside substrate; Ki equals IC50 on ToTK1

ToTK1 [5] = target: T2, ToTK1; test: nucleoside kinase assay, 3H-labelled nucleoside substrate; format: biochemical; details: read-out: IC50 dTTP (μM) / dThd
Description: (§3) nucleoside kinase assay, 3H-labelled nucleoside substrate on ToTK1

ToTK1 [6] = target: T4, ToTK1; test: as above; format: biochemical; details: read-out: IC50 dTTP (μM) / dThd
Description: as §3

ToTK1ΔC25 [7] = target: T1, ToTK1ΔC25; test: as above; format: biochemical; details: read-out: IC50 dTTP (μM) / dThd
Description: nucleoside kinase assay, 3H-labelled nucleoside substrate on ToTK1ΔC25

[8] = substrate: Cc1cn([C@H]2C[C@H](O)[C@@H](CO)O2)c(=O)[nH]c1=O; test: nucleoside kinase assay, 3H-labelled nucleoside, Michaelis-Menten fit; format: biochemical, Solanum lycopersicum; details: labelled compound (3H)
Description: as §2

[9] = substrate: O=c1ccn([C@H]2C[C@H](O)[C@@H](CO)O2)c(=O)[nH]1; test: as above; format: biochemical, Solanum lycopersicum; details: labelled compound (3H)
Description: as §2

[10] = substrate: O=c1ccn([C@H]2C[C@H](O)[C@@H](CO)O2)c(=O)[nH]1; test: as above; format: biochemical, Solanum lycopersicum; details: labelled compound (3H); remark: listed apart in the source
Description: as §1

`Cc1cn([C@H]2C[C@H](N=[N+]=[N-])[C@@H](CO)O2)c(=O)[nH]c1=O` [AZT, 3-azido-2,3-dideoxythymidine] was tested, and the Km (ToTK1ΔC25 [1]) was 2 ± 0.06 µM, the Km (ToTK1 [2]) was 1.2 ± 0.04 µM and the Km (ToTK1 [3]) was 1.1 ± 0.1 µM.

In the case of `Cc1cn([C@H]2C[C@H](O)[C@@H](COP(=O)(O)OP(=O)(O)OP(=O)(O)O)O2)c(=O)[nH]c1=O` [dTTP], the Ki (ToTK1 [4]) is reported as 55.6 µM, the IC50 (ToTK1 [5]) is reported as 49.1 ± 1.7 µM and the IC50 (ToTK1 [6]) is reported as 55.6 ± 5.2 µM. For the same molecule, the IC50 (ToTK1ΔC25 [7]) was 65.2 ± 6 µM.

B1: ToTK1 (Solanum lycopersicum; N123S/T78A) (protein)
chain: T2 sequence (Q71F77 1-234) with T78A, N123S
notes: full length, 234 residues; GST fusion from pGEX-2T, thrombin-cleaved, recombinant
B1 was tested, and the Km [8] was 1.3 ± 0.36 µM, the Vmax [8] was 1.6 µmol/min/mg and the kcat [8] was 0.69 s⁻¹. For the same molecule, the kcat/Km [8] was 531000 M⁻¹ s⁻¹, the Km [9] was 15 ± 3.3 µM and the Vmax [9] was 1.9 µmol/min/mg. The kcat [9] was 0.82 s⁻¹ and the kcat/Km [9] was 54700 M⁻¹ s⁻¹.

B2: ToTK1 (Solanum lycopersicum) (protein)
chain: T2 sequence (Q71F77 1-234)
notes: as for B1
Molecule B2 has a Km [9] of 17 ± 0.5 µM, a Vmax [9] of 3.4 µmol/min/mg and a kcat [9] of 1.47 s⁻¹. For the same molecule, the kcat/Km [9] was 86500 M⁻¹ s⁻¹.

B3: ToTK1ΔC25 (Solanum lycopersicum) (protein)
chain: T1 sequence (Q71F77 1-209)
notes: last 25 C-terminal residues of the 234-residue protein deleted (residues 210-234, borders derived); GST fusion from pGEX-2T, thrombin-cleaved, recombinant
B3 was tested, and the Km [10] was 27 ± 3.3 µM, the Vmax [10] was 4 µmol/min/mg and the kcat [10] was 1.54 s⁻¹. For the same molecule, the kcat/Km [10] was 57000 M⁻¹ s⁻¹.
